According to the supplement of paper PMC9170038:

Assays:
[1] = system: MS2 coat protein; assay: apparent KD of MS2 coat protein, switch OFF state (with FMN for OFF switches, without FMN for ON switches); designed switch direction (-1 OFF switch, 1 ON switch): 1; higher = weaker reporter binding; details: FMN input: 0 or 200 uM; Eterna round: R93 (includes R88 designs)
Summary of the method: (§1)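 With or without constant ligand, designed RNA switches in 100 mM Tris-HCl pH 7.5, 80 mM KCl and 4 mM MgCl2 were titrated with SNAP-549-labelled MS2 coat protein. Concentrations went up in twofold steps from 0.7 or 1.5 nM to 3 µM. The switches had been transcribed on-chip from Illumina sequencing clusters, and apparent KD is the per-design median of normalised cluster binding-curve fits.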

[2] = system: MS2 coat protein; assay: apparent KD of MS2 coat protein, switch ON state; designed switch direction (-1 OFF switch, 1 ON switch): 1; higher = weaker reporter binding; details: FMN input: 0 or 200 uM; Eterna round: R93 (includes R88 designs)
Summary of the method: as §1

Sequence | apparent KD of MS2 coat protein [1] [nM] | apparent KD of MS2 coat protein [2] [nM]
AAAAAAAAAAGACAGGAUAUCCAAAAAAAAACAUGAGGAUCACCCAUGUAAAAAAAAAAAAAAUGGGAGAAGGGUCAAAAAAAAAA [Louisiana 5 - Jieux - Same State 2] | 36.5 | 21.9
GGGAGGAAGAGAGAGGAUAUCCAAAGGAAAACAUGAGGAUCACCCAUGUAAAAGGUAGGAAAUUGGGAGAAGGCUCAAAAGAGGC [salish99-ss2-042] | 46.6 | 19.4
AGAAAUAAAAGAGAGGAUAUCCUAAAGAAAACAUGAGGAUCACCCAUGUAAAAGAAAAUAAAAUGGGAGAAGGCUCAAAAUAAAG [80%, More Helter Skelter 2] | 39.5 | 15.4
AAAAAGGAGAGAGAGGAUAUCCAAAGGAAAACAUGAGGAUCACCCAUGUAAAAGGUAGGAAAUUGGGAGAAGGCUCAAGAGAGAG [salish99-ss2-107] | 36.5 | 17.6
AACCGGGAGAAGCAGGAUAUUGCCUCUUCAACAUGAGGAUCACCCAUGUAAGUAAAUUGACGAUACAAGAAGGGCUGCUCCUUAC [Raatgees] | 74.3 | 30.5
AAAUAAAGGACUAAGGAUAUAUCGCAUGACACAUGAGGAUCACCCAUGUGGUAACACAGAGGGUGAUAGAAGGUAGUCCACAAACA [Pariah 6 (MS2 Riboswitches - Same State 2)] | 287 | 42.8
AAAUAACAUGAGGAUCACCCAUGUUGCAGCGGUUGAGGAUAUGUGGGUGAAAAUAGCAUGGCAGAAGGCGAGUGUA [SameState1 Malc#26] | 71.9 | 71.3
AUAACAACGUAUGAGGAUAUCCUUAAUAAAACAUGAGGAUCACCCAUGUGAAUAAAAUAACAAUUGGAGAAGGCAUACGUACAAU [SS 2 M 52] | 20.8 | 15.4
GAAAAAAAAAGGCAGGAUAUCCAAAAAAAAACAUGAGGAUCACCCAUGUAAAAAAAAAAAAAAUGGGAGAAGGGCCAAAAAAAAA [Mat - Same State 2 - Mod - 151] | 35.2 | 25.5
AAGAAACAUGAGGAUCACCCAUGUGGAAAUAUGGGAGGAUAUACAAGGACGUAAGUCAAGGUAGAAGGCCUAAGAA [Mat - Same State 1 - Meechl mod - D138] | 134 | 21.5
ACUAUACAUGAGGAUCACCCAUGUUAGCUGGGCGAAGGAUAUGUAGAUGGAUAAAAAUAUGCAGAAGGUCGAUAAC [JR_SS001_Sub210] | 77.2 | 39.5
GGAAAUAACAGAGAGGAUAUCCAAAGGAAAACAUGAGGAUCACCCAUGUAAAAGGAAGGAAAUUGGGAGAAGGCUCAAAAUAGAA [salish99-ss2-019] | 26.7 | 15.1
GAAAAACAUGAGGAUCACCCAUGUGACAACAUGGGAGGAUAUACGUGGACGAUAGUCAAAGUAGAAGGCCUAAAAG [Garnet 64] | 18.4 | 71.7
AAAACACAUGAGGAUCACCCAUGUAAAAACAUGAGAGGAUAUGCAUGAAAAACAUGCUAUGCAGAAGGCUCAUGUG [SS1 - 1] | 27.2 | 20.9
AAUACACAUGAGGAUCACCCAUGUAGAAAGAAGGCAGGAUAUCAGAUCCACAUGUGAUAAUGAGAAGGGCCAAUAA [SS 1 Tesla 9] | 102 | 21.1
GUGAGGAAGAGAGAGGAUAUCCAAAGGAAAACAUGAGGAUCACCCAUGUAAAAGGUAGGAAAUUGGGAGAAGGCUCAAGAGAGAG [salish99-ss2-067] | 34.7 | 40.2
UAAAAACAUGAGGAUCACCCAUGUAGAAACAUGGGAGGAUAUACAAAGACGAAAGUCAAAGUAGAAGGCCUAAAAU [Mat - Same State 1 - Mod - D169] | 43.4 | 51.4
AACAAUCUAUCUGAGGAUAUCAUUUCAAAGACAUGAGGAUCACCCAUGUCCAGGAAAACUGGAAAUGAGAAGGCAGAUAGAUUGA [SS2: 1106] | 9.31 | 11.7
GAGGACAUAGUACAGGAUAUAUGAAUAGUUACAUGAGGAUCACCCAUGUGCAUUUAUAUGCGCACAUAGAAGGGUGGUAGUUAUC [SameState2 Malc#29] | 33.5 | 38.8

Sequence | apparent KD of MS2 coat protein [1] [nM] | apparent KD of MS2 coat protein [2] [nM]
CGAAAGGAGAGAGAGGAUAUCCAAAGGAAAACAUGAGGAUCACCCAUGUAGAAGGUAGGAGAUUGGGAGAAGGCUCAAGAUAGAG [salish99-ss2-145] | 73.2 | 29.5
CGGAGACAUGAGGAUCACCCAUGUGAGAAGAGGCGAGGAUAUCGAAAGAAAGAAGAGAAACGAGAAGGCGCGAGCC [salish99-SS1-080(!)] | 31.4 | 32.1
AAAAGACAUGAGGAUCACCCAUGUAAAGACAUAGGAGGAUAUGUCGUGAAAAAAGACUUGGCAGAAGGCCUUUGUC [SS1 - 46] | 25.6 | 21
AAUAUAUUAUUUAAGGAUAUCAUAGGAAACACAUGAGGAUCACCCAUGUGGGAAACCUGGUCGGGUGAGAAGGUGGAUAAUAUAU [Samwise Clockwise 35 - Jieux - Same State 2] | 35.2 | 13.8
AAAAAACAUGAGGAUCACCCAUGUAAAUCUCAUGUAGGAUAUACAAAAAAAAAAAAAAAAGUAGAAGGACAAAAAA [Omei A variation 5] | 75.2 | 125
AGAAGACAUGAGGAUCACCCAUGUGGGAAUAUGGGAGGAUAUACAAAGACGAGAGUCAGAGUAGAAGGCCUAGGCA [salish99-ss1-111] | 129 | 47
AAAAGGCUAAACUAGGAUAUGGGUGUCUAAACAUGAGGAUCACCCAUGUGAUGGCAAAACAAAGCUCAGAAGGAGUGGUAGCCCA [Riquceri] | 56.7 | 12.4
AAUAUACAUGAGGAUCACCCAUGUUUUAAUAACUGAGGAUAUACGGGUGAAAACAGCAUAGUAGAAGGCAGAUAUA [SameState1 Malc#6] | 102 | 37.8
CGCAGGAAGAGAGAGGAUAUCCAAAGGAAAACAUGAGGAUCACCCAUGUAAAAGGUAGGAAAUUGGGAGAAGGCUCAAGAGAGAG [salish99-ss2-100] | 40.9 | 34.3
AAAAAACAUGAGGAUCACCCAUGUGCAAAAUUCGCAGGAUAUCCCUUUUUUAAAUGGGAGGGAGAAGGGUGUAAAA [Nob's Hobby 18 - Jieux - Same State 1] | 47.4 | 27.1
AAGAAACAUGAGGAUCACCCAUGUCAAGAGAGACUAGGAUAUCUGAAUUAAUUAAAUUAAGGAGAAGGAGUGAAAA [71%, Same state of confusion2, 2] | 88.6 | 35.9
AAAAGACAUGAGGAUCACCCAUGUAAAAACGUAGGAGGAUAUGUCUGGAAAACAUGCUGGACAGAAGGCCUGUGUC [SS1 - 29] | 25.2 | 17.6
GGGAGACAUGAGGAUCACCCAUGUGAAAACGUGUCAGGAUAUGUAUGGAAACCAUACUGUACAGAAGGGACUUGUC [Quintus Rammius Martialis] | 89.2 | 54.8
AAAAAACAUGAGGAUCACCCAUGUAAAAAAAUGGGAGGAUAUAUGAAAAAAAAAAAAAAAAUAGAAGGCCUGAAAA [same state 11] | 64.2 | 399
GAAAAACAUGAGGAUCACCCAUGUAGAAAUAUGGAAGGAUAUACAAAGACGAAAGUCAAAGUAGAAGGUCUAAAAG [Mat - Same State 1 - Eli mod - D13] | 19.8 | 15.5
UAACAACAUGAGGAUCACCCAUGUCAAAUAAAUCGAGGAUAUGGGACGCAAGACGUCUUACCAGAAGGCGAAACAA [Leoratin] | 70.9 | 25.1
AUUCCAACUAGUCAGGAUAUCAGGCGUAAGACAUGAGGAUCACCCAUGUACUUAGUACAAGUAACUGAGAAGGGACAGGGUGUAA [JR_SS002_Sub408] | 25.3 | 20.3
AAAAAACAUGAGGAUCACCCAUGUCAAAAGACGUGAGGAUAUGUACAGACUUCGGUCUGUACAGAAGGCACGAAAA [SS1 - 1037] | 20.1 | 12.9
UAACUACAUGAGGAUCACCCAUGUCAAAUAAAUCGAGGAUAUGGGACGCAAAACGUCUGACCAGAAGGCGAAACAA [Maquriceri] | 132 | 27.3
